Results published in FireProtDB (doi:10.1093/protein/gzl019).

B1: Cold shock protein CspB, P41016 (parent)
chain: MQRGKVKWFNNEKGYGFIEVEGGSDVFVHFTAIQGEGFKTLEEGQEVSFEIVQGNRGPQAANVVKL

Variants of: B1
Settings: Bacillus caldolyticus, pH 7, Thermal, Na cacodylate/HCl 0.1 M, reversible: Yes, structure 1C9O, whole UniProt chain shown

| Variant | ddG of mutation (higher = less stable) (75 °C, CD, NaCl 0-2 M) [kcal/mol] | heat capacity change of unfolding (75 °C, CD, NaCl 0-2 M) [kcal/mol/K] | ddG of mutation (higher = less stable) (75 °C, CD, NaCl 2 M) [kcal/mol] | heat capacity change of unfolding (75 °C, CD, NaCl 2 M) [kcal/mol/K] | ddG of mutation (higher = less stable) (75 °C, CD) [kcal/mol] | heat capacity change of unfolding (75 °C, CD) [kcal/mol/K] | Tm (CD) [°C] | change of melting temperature, mutant - wild type (higher = more stable) (CD) [°C] | heat capacity change of unfolding (CD) [kcal/mol/K] | unfolding enthalpy (van 't Hoff) (CD) [kcal/mol] | ddG of mutation (higher = less stable) (75 °C, DSC, NaCl 0-2 M) [kcal/mol] | heat capacity change of unfolding (75 °C, DSC, NaCl 0-2 M) [kcal/mol/K] | ddG of mutation (higher = less stable) (75 °C, DSC, NaCl 2 M) [kcal/mol] | heat capacity change of unfolding (75 °C, DSC, NaCl 2 M) [kcal/mol/K] | ddG of mutation (higher = less stable) (75 °C, DSC) [kcal/mol] | heat capacity change of unfolding (75 °C, DSC) [kcal/mol/K] | Tm (DSC) [°C] | change of melting temperature, mutant - wild type (higher = more stable) (DSC) [°C] | heat capacity change of unfolding (DSC) [kcal/mol/K] | unfolding enthalpy (calorimetric) (DSC) [kcal/mol] |
| --- | --- | --- | --- | --- | --- | --- | --- | --- | --- | --- | --- | --- | --- | --- | --- | --- | --- | --- | --- | --- |
| N55K | 0.29 | 0.96 | -0.19 | 0.96 | -0.1 | 0.96 | 77.7 | 0.8 | 0.96 | 55.2 | – | – | – | – | – | – | – | – | – | – |
| R56E | -0.53 | 0.96 | -0.24 | 0.96 | -0.76 | 0.96 | – | – | – | – | – | – | – | – | – | – | – | – | – | – |
| E46K | – | – | – | – | – | – | – | – | – | – | 0.43 | 0.96 | 0.22 | 0.96 | 0.65 | 0.96 | 74 | -2.9 | 0.96 | 114 |
| E50K | 0.76 | 0.96 | -0.26 | 0.96 | 0.5 | 0.96 | 73.5 | -3.4 | 0.96 | 43.3 | – | – | – | – | – | – | – | – | – | – |
| E12K | 0.1 | 0.96 | 0.29 | 0.96 | 0.43 | 0.96 | – | – | – | – | – | – | – | – | – | – | – | – | – | – |
| E21K | 0.43 | 0.96 | -0.17 | 0.96 | 0.26 | 0.96 | 75.4 | -1.5 | 0.96 | 49 | – | – | – | – | – | – | – | – | – | – |
| H29E | – | – | – | – | – | – | – | – | – | – | 0.29 | 0.96 | 0.48 | 0.96 | 0.76 | 0.96 | – | – | – | – |
| E36K | 0.98 | 0.96 | -0.79 | 0.96 | 0.19 | 0.96 | 76 | -0.9 | 0.96 | 45.6 | – | – | – | – | – | – | – | – | – | – |
